Assay results as given in patent US20110263454A1, “Methods of Identifying Functional Characteristics of Promoters, Transcription Modifying Proteins and Transcription Modulating Agents” (Salk Institute for Biological Studies, priority 2008, published 2011).

B1: hMR: Mineralocorticoid Receptor (NR3C2, MR), cDNA driver (protein, UniProt P08235 1-984, looked up)
Mineralocorticoid receptor: METKGYHSLPEGLDMERRWGQVSQAVERSSLGPTERTDENNYMEIVNVSCVSGAIPNNSTQGSSKEKQELLPCLQQDNNRPGILTSDIKTELESKELSATVAESMGLYMDSVRDADYSYEQQNQQGSMSPAKIYQNVEQLVKFYKGNGHRPSTLSCVNTPLRSFMSDSGSSVNGGVMRAVVKSPIMCHEKSPSVCSPLNMTSSVCSPAGINSVSSTTASFGSFPVHSPITQGTPLTCSPNVENRGSRSHSPAHASNVGSPLSSPLSSMKSSISSPPSHCSVKSPVSSPNNVTLRSSVSSPANINNSRCSVSSPSNTNNRSTLSSPAASTVGSICSPVNNAFSYTASGTSAGSSTLRDVVPSPDTQEKGAQEVPFPKTEEVESAISNGVTGQLNIVQYIKPEPDGAFSSSCLGGNSKINSDSSFSVPIKQESTKHSCSGTSFKGNPTVNPFPFMDGSYFSFMDDKDYYSLSGILGPPVPGFDGNCEGSGFPVGIKQEPDDGSYYPEASIPSSAIVGVNSGGQSFHYRIGAQGTISLSRSARDQSFQHLSSFPPVNTLVESWKSHGDLSSRRSDGYPVLEYIPENVSSSTLRSVSTGSSRPSKICLVCGDEASGCHYGVVTCGSCKVFFKRAVEGQHNYLCAGRNDCIIDKIRRKNCPACRLQKCLQAGMNLGARKSKKLGKLKGIHEEQPQQQQPPPPPPPPQSPEEGTTYIAPAKEPSVNTALVPQLSTISRALTPSPVMVLENIEPEIVYAGYDSSKPDTAENLLSTLNRLAGKQMIQVVKWAKVLPGFKNLPLEDQITLIQYSWMCLSSFALSWRSYKHTNSQFLYFAPDLVFNEEKMHQSAMYELCQGMHQISLQFVRLQLTFEEYTIMKVLLLLSTIPKDGLKSQAAFEEMRTNYIKELRKMVTKCPNNSGQSWQRFYQLTKLLDSMHDLVSDLLEFCFYTFRESHALKVEFPAMLVEIISDQLPKVESGNAKPLYFHRK
B2: NR4a3: NR4a3 (NR4A3; NOR1), nuclear hormone receptor cDNA driver (protein, UniProt Q92570 1-626, looked up)
Nuclear receptor subfamily 4 …: MPCVQAQYSPSPPGSSYAAQTYSSEYTTEIMNPDYTKLTMDLGSTEITATATTSLPSISTFVEGYSSNYELKPSCVYQMQRPLIKVEEGRAPSYHHHHHHHHHHHHHHQQQHQQPSIPPASSPEDEVLPSTSMYFKQSPPSTPTTPAFPPQAGALWDEALPSAPGCIAPGPLLDPPMKAVPTVAGARFPLFHFKPSPPHPPAPSPAGGHHLGYDPTAAAALSLPLGAAAAAGSQAAALESHPYGLPLAKRAAPLAFPPLGLTPSPTASSLLGESPSLPSPPSRSSSSGEGTCAVCGDNAACQHYGVRTCEGCKGFFKRTVQKNAKYVCLANKNCPVDKRRRNRCQYCRFQKCLSVGMVKEVVRTDSLKGRRGRLPSKPKSPLQQEPSQPSPPSPPICMMNALVRALTDSTPRDLDYSRYCPTDQAAAGTDAEHVQQFYNLLTASIDVSRSWAEKIPGFTDLPKEDQTLLIESAFLELFVLRLSIRSNTAEDKFVFCNGLVLHRLQCLRGFGEWLDSIKDFSLNLQSLNLDIQALACLSALSMITERHGLKEPKRVEELCNKITSSLKDHQSKGQALEPTESKVLGALVELRKICTLGLQRIFYLKLEDLVSPPSIIDKLFLDTLPF
B3: PR: Progesterone Receptor (NR3C3), cDNA driver (protein, UniProt P06401 1-933, looked up)
Progesterone receptor: MTELKAKGPRAPHVAGGPPSPEVGSPLLCRPAAGPFPGSQTSDTLPEVSAIPISLDGLLFPRPCQGQDPSDEKTQDQQSLSDVEGAYSRAEATRGAGGSSSSPPEKDSGLLDSVLDTLLAPSGPGQSQPSPPACEVTSSWCLFGPELPEDPPAAPATQRVLSPLMSRSGCKVGDSSGTAAAHKVLPRGLSPARQLLLPASESPHWSGAPVKPSPQAAAVEVEEEDGSESEESAGPLLKGKPRALGGAAAGGGAAAVPPGAAAGGVALVPKEDSRFSAPRVALVEQDAPMAPGRSPLATTVMDFIHVPILPLNHALLAARTRQLLEDESYDGGAGAASAFAPPRSSPCASSTPVAVGDFPDCAYPPDAEPKDDAYPLYSDFQPPALKIKEEEEGAEASARSPRSYLVAGANPAAFPDFPLGPPPPLPPRATPSRPGEAAVTAAPASASVSSASSSGSTLECILYKAEGAPPQQGPFAPPPCKAPGASGCLLPRDGLPSTSASAAAAGAAPALYPALGLNGLPQLGYQAAVLKEGLPQVYPPYLNYLRPDSEASQSPQYSFESLPQKICLICGDEASGCHYGVLTCGSCKVFFKRAMEGQHNYLCAGRNDCIVDKIRRKNCPACRLRKCCQAGMVLGGRKFKKFNKVRVVRALDAVALPQPVGVPNESQALSQRFTFSPGQDIQLIPPLINLLMSIEPDVIYAGHDNTKPDTSSSLLTSLNQLGERQLLSVVKWSKSLPGFRNLHIDDQITLIQYSWMSLMVFGLGWRSYKHVSGQMLYFAPDLILNEQRMKESSFYSLCLTMWQIPQEFVKLQVSQEEFLCMKVLLLLNTIPLEGLRSQTQFEEMRSSYIRELIKAIGLRQKGVVSSSQRFYQLTKLLDNLHDLVKQLHLYCLNTFIQSRALSVEFPEMMSEVIAAQLPKILAGMVKPLLFHKK
B4: NR4a2: NR4a2 (NR4A2; NURR1), nuclear hormone receptor cDNA driver (protein, UniProt P43354 1-598, looked up)
Nuclear receptor subfamily 4 …: MPCVQAQYGSSPQGASPASQSYSYHSSGEYSSDFLTPEFVKFSMDLTNTEITATTSLPSFSTFMDNYSTGYDVKPPCLYQMPLSGQQSSIKVEDIQMHNYQQHSHLPPQSEEMMPHSGSVYYKPSSPPTPTTPGFQVQHSPMWDDPGSLHNFHQNYVATTHMIEQRKTPVSRLSLFSFKQSPPGTPVSSCQMRFDGPLHVPMNPEPAGSHHVVDGQTFAVPNPIRKPASMGFPGLQIGHASQLLDTQVPSPPSRGSPSNEGLCAVCGDNAACQHYGVRTCEGCKGFFKRTVQKNAKYVCLANKNCPVDKRRRNRCQYCRFQKCLAVGMVKEVVRTDSLKGRRGRLPSKPKSPQEPSPPSPPVSLISALVRAHVDSNPAMTSLDYSRFQANPDYQMSGDDTQHIQQFYDLLTGSMEIIRGWAEKIPGFADLPKADQDLLFESAFLELFVLRLAYRSNPVEGKLIFCNGVVLHRLQCVRGFGEWIDSIVEFSSNLQNMNIDISAFSCIAALAMVTERHGLKEPKRVEELQNKIVNCLKDHVTFNNGGLNRPNYLSKLLGKLPELRTLCTQGLQRIFYLKLEDLVPPPAIIDKLFLDTLPF

How the values were obtained:
hPPARg1 promoter = assay: NHR-promoter luciferase screen, hPPARg1 promoter; assay type: cell-based, human; conditions: for Luc. act., normalized to lacZ / Normalized Luc. act., normalized to control: PPARG1 promoter, hormone receptor with or without its ligand; for Normalized Luc. act., normalized to control: relative to control; for Results of assays of transcription factor (+/- ligand) with hPPARg1: Table 6d, luciferase activity relative to control (control = 1.00)
Method in brief: (§1)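 CV-1 cells were co-transfected with 50 ng NHR (homodimer or NHR/RXR heterodimer), 100 ng promoter-luciferase construct and 50 ng LacZ. Luciferase was normalized to LacZ and to a no-NHR/no-ligand control.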

RevErba promoter = assay: NHR-promoter luciferase screen, RevErba (RVRa) promoter; assay type: cell-based; design: key to mRevErba promoter reporter activity / Normalized Luc. act., normalized to control: luciferase activity normalized to lacZ and to control (no NHR/ligand); conditions: for Luc. act., normalized to lacZ / Normalized Luc. act., normalized to control / negative reciprocal of normalized Luc. act. (fold repression; Table 33) / normalized Luc. act. on a logarithmic scale (column without head, Table 33): RVRa promoter; for Luc. act., normalized to lacZ / Normalized Luc. act., normalized to control: HR component without or with ligand; for negative reciprocal of normalized Luc. act. (fold repression; Table 33): given only where activity is below control; for normalized Luc. act. on a logarithmic scale (column without head, Table 33): log10 of activity normalized to control; for mRevErba promoter reporter activity: transcription factor +/- ligand, control = 1.00
Method in brief: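 Reporter readout: RevErbα promoter-driven luciferase, corrected for LacZ transfection efficiency and expressed relative to a no-receptor or no-ligand control. Receptors (V5H6-tagged, pcDNA3.1), alone or with RXR, plus any ligand, were expressed in CV-1 cells.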

hPOMC promoter = assay: NHR-promoter luciferase screen, hPOMC promoter; assay type: cell-based, human; conditions: for Normalized Luc. act., normalized to control / Luc. act., normalized to lacZ: hPOMC promoter, HR/ligand component; for hPOMC promoter reporter activity: transcription factor +/- ligand, control = 1.00
Method in brief: as §1

mPOMC promoter = assay: NHR-promoter luciferase screen, mPOMC promoter; assay type: cell-based, mouse; conditions: for Results of assays of transcription factor (+/- ligand) with mPOMC: Table 6d, luciferase activity relative to control (control = 1.00); for Luc. act., normalized to lacZ / Normalized Luc. act., normalized to control: mPOMC promoter, HR component with or without ligand; for Normalized Luc. act., normalized to control: relative to control
Method in brief: as §1

hG6PD promoter = assay: NHR-promoter luciferase screen, hG6PD promoter; assay type: cell-based, human; conditions: for Luc. act., normalized to lacZ / Normalized Luc. act., normalized to control: G6PD promoter reporter, co-transfected HR, without or with its ligand; for Normalized Luc. act., normalized to control: relative to control; for luciferase activity normalized to lacZ activity and to a control, hG6PD: hG6PD promoter-luciferase, CV-1 cells, NHR +/- ligand, control = 1.00
Method in brief: as §1

Molecule	Luc. act., normalized to lacZ (hPPARg1 promoter)	Normalized Luc. act., normalized to control (hPPARg1 promoter)	Results of assays of transcription factor (+/- ligand) with hPPARg1 (hPPARg1 promoter)	Luc. act., normalized to lacZ (RevErba promoter)	Normalized Luc. act., normalized to control (RevErba promoter)	negative reciprocal of normalized Luc. act. (fold repression; Table 33) (RevErba promoter)	normalized Luc. act. on a logarithmic scale (column without head, Table 33) (RevErba promoter)	mRevErba promoter reporter activity (RevErba promoter)	Normalized Luc. act., normalized to control (hPOMC promoter)	hPOMC promoter reporter activity (hPOMC promoter)	Results of assays of transcription factor (+/- ligand) with mPOMC (mPOMC promoter)	Luc. act., normalized to lacZ (mPOMC promoter)	Normalized Luc. act., normalized to control (mPOMC promoter)	Luc. act., normalized to lacZ (hG6PD promoter)	Normalized Luc. act., normalized to control (hG6PD promoter)	luciferase activity normalized to lacZ activity and to a control, hG6PD (hG6PD promoter)	Luc. act., normalized to lacZ (hPOMC promoter)
B1	56.4	0.8	0.82	13.7	0.5	−2.036	−0.31	0.49	0.0	0.00	0.73	50.3	0.7	35.2	0.9	0.94	
B2	61.0	0.9	0.88	14.7	0.5	−1.9	−0.28	0.53	0.6	0.63	0.87	59.7	0.9	43.4	1.2	1.16	2.7
B3	81.3	1.2	1.18	24.1	0.9	−1.16	−0.06	0.86	0.7	0.75	1.10	75.8	1.1	45.4	1.2	1.22	3.2
B4	58.8	0.9	0.85	20.6	0.7	−1.357	−0.13	0.74	0.5	0.49	1.05	72.2	1.0	41.1	1.1	1.10	2.1
